Consider 34 variants from the supplement of paper PMC6755084.

To fix the notation:
B1: F1*; the commonest letter at each place (parent)
chain: GAGACCGCAACTGAAAAGTTGTTATCACTTGTCGTAAGACACTTTGGATGGGTTGAAGTTCTGCACGTAGAAGCAAAAGGC

The variants in the series derive from B1. Put plainly: fraction ligated after 30 min (ligated reads / total reads); higher = more ligase activity. The following applies: with F1*sub RNA substrate (template-directed ligation), 42 °C. How it is done:
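Chip-synthesised pool of F1* ligase ribozyme variants (all single and double substitutions, single, double and triple deletions in the catalytic core and GAA bulge, plus designed variants) was transcribed with T7 and reacted as a pool with excess substrate F1*sub for 30 min at 42 C in 50 mM EPPS pH 8.5, 25 mM MgCl2. Ligated and unligated bands were separated by PAGE, barcoded by RT and deep sequenced; fraction ligated = ligated reads / total reads per variant, relative activity = FL / FL of wild type (0.826). Sequences are the DNA template of the ribozyme.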
Regarding GAGACCGCAACTGAAAAGTTGTTATCGCTTATCGTAAGACACTTTGGATGGGTTGAAGTTCTGCACGTAGAAGCAAAAGGC [A27G G31A], the fraction ligated was 0.776.
GAGACCGCAACTGAAAAGTTGTTATCGCTTCTCGTAAGACACTTTGGATGGGTTGAAGTTCTGCACGTAGAAGCAAAAGGC [A27G G31C]: the fraction ligated was found to be 0.798.
The figure for GAGACCGCAACTGAAAAGTTGTTATCGCTTTTCGTAAGACACTTTGGATGGGTTGAAGTTCTGCACGTAGAAGCAAAAGGC [A27G G31T] is 0.791.
The figure for GAGACCGCAACTGAAAAGTTGTTATCGCTTGTCGTAAGACACTTTGGATGGGTTGATGTTCTGCACGTAGAAGCAAAAGGC [A27G A57T] is 0.81.
The figure for GAGACCGCAACTGAAAAGTTGTTATCGCTTGTCGTAATACACTTTGGATGGGTTGAAGTTCTGCACGTAGAAGCAAAAGGC [A27G G38T] is 0.824; for GAGACCGCAACTGAAAAGTTGTTATCGCTTGTCGTAACACACTTTGGATGGGTTGAAGTTCTGCACGTAGAAGCAAAAGGC [A27G G38C] it is 0.798; for GAGACCGCAACTGAAAAGTTGTTATCGCTTGTCGTAAAACACTTTGGATGGGTTGAAGTTCTGCACGTAGAAGCAAAAGGC [A27G G38A] it is 0.83.
As for GAGACCGCAACTGAAAAGTTGTTATCGCTTGTCCTAAGACACTTTGGATGGGTTGAAGTTCTGCACGTAGAAGCAAAAGGC [A27G G34C], the fraction ligated is 0.804.
As to GAGACCGCAACTGAAAAGTTGTTATCGCTTGTCATAAGACACTTTGGATGGGTTGAAGTTCTGCACGTAGAAGCAAAAGGC [A27G G34A], the fraction ligated came out at 0.831.
The figure for GAGACCGCAACTGAAAAGTTGTTATCGCTTGTCTTAAGACACTTTGGATGGGTTGAAGTTCTGCACGTAGAAGCAAAAGGC [A27G G34T] is 0.804; for GAGACCGCAACTGAAAAGTTGTTATCGCTTGTCGTAAGACACTTTGGATAGGTTGAAGTTCTGCACGTAGAAGCAAAAGGC [A27G G50A] it is 0.244.
For the variant GAGACCGCAACTGAAAAGTTGTTATCGCTTGTCGTAAGACACTTTGGATCGGTTGAAGTTCTGCACGTAGAAGCAAAAGGC [A27G G50C], the fraction ligated amounted to 0.161.
Next, GAGACCGCAACTGAAAAGTTGTTATCGCTTGTCGTAAGACACTTTGGATTGGTTGAAGTTCTGCACGTAGAAGCAAAAGGC [A27G G50T]: 0.596; GAGACCGCAACTGAAAAGTTGTTATCGCTTGTCGTAAGAAACTTTGGATGGGTTGAAGTTCTGCACGTAGAAGCAAAAGGC [A27G C40A]: 0.79; GAGACCGCAACTGAAAAGTTGTTATCGCTTGTCGTAAGATACTTTGGATGGGTTGAAGTTCTGCACGTAGAAGCAAAAGGC [A27G C40T]: 0.817.
Consider GAGACCGCAACTGAAAAGTTGTTATCGCTTGTCGTAAGAGACTTTGGATGGGTTGAAGTTCTGCACGTAGAAGCAAAAGGC [A27G C40G], for which the fraction ligated stood at 0.813.
GAGACCGCAACTGAAAAGTTGTTATCGCTTGTCGTAAGACACTTTGGATGGGTTCAAGTTCTGCACGTAGAAGCAAAAGGC [A27G G55C]: the fraction ligated was 0.554.
On to GAGACCGCAACTGAAAAGTTGTTATCGCTTGTCGTAAGACACTTTGGATGGGTTAAAGTTCTGCACGTAGAAGCAAAAGGC [A27G G55A], for which the fraction ligated worked out at 0.801.
For the variant GAGACCGCAACTGAAAAGTTGTTATCGCTTGTCGTAAGACACTTTGGATGGGTTTAAGTTCTGCACGTAGAAGCAAAAGGC [A27G G55T], the fraction ligated stood at 0.79.
As for GAGACCGCAACTGAAAAGTTGTTATCGCTTGTCGTAAGACACTTTAGATGGGTTGAAGTTCTGCACGTAGAAGCAAAAGGC [A27G G46A], the fraction ligated came to 0.83.
The figure for GAGACCGCAACTGAAAAGTTGTTATCGCTTGTCGTAAGACACTTTTGATGGGTTGAAGTTCTGCACGTAGAAGCAAAAGGC [A27G G46T] is 0.796; for GAGACCGCAACTGAAAAGTTGTTATCGCTTGTCGTAAGACACTTTCGATGGGTTGAAGTTCTGCACGTAGAAGCAAAAGGC [A27G G46C] it is 0.795.
Consider GAGACCGCAACTGAAAAGTTGTTATCGCTTGTCGTAAGACAATTTGGATGGGTTGAAGTTCTGCACGTAGAAGCAAAAGGC [A27G C42A], for which the fraction ligated worked out at 0.827.
Next, GAGACCGCAACTGAAAAGTTGTTATCGCTTGTCGTAAGACAGTTTGGATGGGTTGAAGTTCTGCACGTAGAAGCAAAAGGC [A27G C42G]: 0.812; GAGACCGCAACTGAAAAGTTGTTATCGCTTGTCGTAAGACATTTTGGATGGGTTGAAGTTCTGCACGTAGAAGCAAAAGGC [A27G C42T]: 0.817; GAGACCGCAACTGAAAAGTTGTTATCGCTTGTCGTAAGACACTTTGTATGGGTTGAAGTTCTGCACGTAGAAGCAAAAGGC [A27G G47T]: 0.329.
In the case of GAGACCGCAACTGAAAAGTTGTTATCGCTTGTCGTAAGACACTTTGAATGGGTTGAAGTTCTGCACGTAGAAGCAAAAGGC [A27G G47A], the fraction ligated was 0.805.
The figure for GAGACCGCAACTGAAAAGTTGTTATCGCTTGTCGTAAGACACTTTGCATGGGTTGAAGTTCTGCACGTAGAAGCAAAAGGC [A27G G47C] is 0.583; for GAGACCGCAACTGAAAAGTTGTTATCGCTTGTAGTAAGACACTTTGGATGGGTTGAAGTTCTGCACGTAGAAGCAAAAGGC [A27G C33A] it is 0.8.
For the variant GAGACCGCAACTGAAAAGTTGTTATCGCTTGTTGTAAGACACTTTGGATGGGTTGAAGTTCTGCACGTAGAAGCAAAAGGC [A27G C33T], the fraction ligated turned out to be 0.828.
On to GAGACCGCAACTGAAAAGTTGTTATCGCTTGTGGTAAGACACTTTGGATGGGTTGAAGTTCTGCACGTAGAAGCAAAAGGC [A27G C33G], for which the fraction ligated stood at 0.846.
GAGACCGCAACTGAAAAGTTGTTATCGTTTGTCGTAAGACACTTTGGATGGGTTGAAGTTCTGCACGTAGAAGCAAAAGGC [A27G C28T]: the fraction ligated was 0.813.
Next, GAGACCGCAACTGAAAAGTTGTTATCGGTTGTCGTAAGACACTTTGGATGGGTTGAAGTTCTGCACGTAGAAGCAAAAGGC [A27G C28G]: 0.777.
The figure for GAGACCGCAACTGAAAAGTTGTTATCGATTGTCGTAAGACACTTTGGATGGGTTGAAGTTCTGCACGTAGAAGCAAAAGGC [A27G C28A] is 0.805.
